Measurements from patent publication EP4438624A1 (LAVA Therapeutics N.V., dated 2024).

T1: recombinant purified human Nectin-4-Fc fusion protein (human, UniProt Q96NY8 32-349)
T1 construct: Bought ('Aero Biosystems' as printed); not shown: Fc part of the bought fusion protein; captured by anti-human IgG Fc sensors
T1 sequence: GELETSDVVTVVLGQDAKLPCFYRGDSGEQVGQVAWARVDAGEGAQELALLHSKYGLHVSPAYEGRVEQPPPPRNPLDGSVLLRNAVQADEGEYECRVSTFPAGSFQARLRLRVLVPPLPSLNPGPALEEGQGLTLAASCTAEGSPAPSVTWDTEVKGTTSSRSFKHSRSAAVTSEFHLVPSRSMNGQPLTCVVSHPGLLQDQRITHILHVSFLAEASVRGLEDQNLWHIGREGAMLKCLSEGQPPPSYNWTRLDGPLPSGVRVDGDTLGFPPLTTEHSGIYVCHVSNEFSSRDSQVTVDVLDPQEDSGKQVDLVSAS

T2: mouse Nectin-4 (mouse, UniProt Q8R007 31-508)
T2 construct: whole, on cells; Transiently expressed on CHO-K1 cells; also called murine Nectin-4
T2 sequence (looked up): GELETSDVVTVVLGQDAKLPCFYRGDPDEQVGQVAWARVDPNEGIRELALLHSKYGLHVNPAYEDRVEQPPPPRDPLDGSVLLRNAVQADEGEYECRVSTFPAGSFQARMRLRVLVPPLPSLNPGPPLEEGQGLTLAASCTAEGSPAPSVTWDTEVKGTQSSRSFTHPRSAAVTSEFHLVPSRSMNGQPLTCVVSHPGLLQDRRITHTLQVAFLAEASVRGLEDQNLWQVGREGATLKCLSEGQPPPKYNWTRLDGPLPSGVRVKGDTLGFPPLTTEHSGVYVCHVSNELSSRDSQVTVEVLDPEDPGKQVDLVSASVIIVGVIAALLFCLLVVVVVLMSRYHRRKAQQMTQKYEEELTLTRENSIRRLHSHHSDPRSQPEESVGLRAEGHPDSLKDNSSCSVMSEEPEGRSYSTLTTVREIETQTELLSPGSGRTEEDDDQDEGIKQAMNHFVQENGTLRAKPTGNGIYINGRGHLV

T3: cynomolgus monkey Nectin-4 (cynomolgus monkey, UniProt A0A2K5WES1 32-510)
T3 construct: whole, on cells; Transiently expressed on CHO-K1 cells; also called cynomolgus Nectin-4
T3 sequence: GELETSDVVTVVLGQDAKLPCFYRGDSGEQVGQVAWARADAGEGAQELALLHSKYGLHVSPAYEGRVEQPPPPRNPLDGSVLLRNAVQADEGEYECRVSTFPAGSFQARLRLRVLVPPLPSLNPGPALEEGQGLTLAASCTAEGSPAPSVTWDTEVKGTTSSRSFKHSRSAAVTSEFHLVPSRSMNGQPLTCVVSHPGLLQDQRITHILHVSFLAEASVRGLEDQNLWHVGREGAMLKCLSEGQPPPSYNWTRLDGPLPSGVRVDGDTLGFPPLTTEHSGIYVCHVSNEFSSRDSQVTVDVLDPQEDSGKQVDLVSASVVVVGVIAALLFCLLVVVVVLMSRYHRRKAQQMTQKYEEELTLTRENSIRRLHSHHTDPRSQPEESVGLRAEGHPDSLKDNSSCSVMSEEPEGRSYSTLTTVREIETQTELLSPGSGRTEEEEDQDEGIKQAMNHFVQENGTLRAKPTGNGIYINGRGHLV

T4: human Nectin-4 (on cells) (human, UniProt Q96NY8 32-510)
T4 construct: also called PVRL4; NECT4_HUMAN
T4 sequence: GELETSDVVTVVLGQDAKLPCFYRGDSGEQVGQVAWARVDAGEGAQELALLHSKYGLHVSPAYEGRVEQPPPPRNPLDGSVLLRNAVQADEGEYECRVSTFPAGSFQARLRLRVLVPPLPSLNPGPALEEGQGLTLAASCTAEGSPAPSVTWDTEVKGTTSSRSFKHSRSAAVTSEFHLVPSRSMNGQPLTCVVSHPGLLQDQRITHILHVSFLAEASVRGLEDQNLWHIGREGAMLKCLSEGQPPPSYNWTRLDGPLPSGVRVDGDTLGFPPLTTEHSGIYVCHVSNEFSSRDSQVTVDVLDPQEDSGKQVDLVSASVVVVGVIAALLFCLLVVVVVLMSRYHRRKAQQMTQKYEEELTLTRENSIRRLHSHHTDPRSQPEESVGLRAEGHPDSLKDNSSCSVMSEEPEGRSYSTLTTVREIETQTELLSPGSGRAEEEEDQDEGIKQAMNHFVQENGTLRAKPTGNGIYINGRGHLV


Columns and labels:
[1] = biological target: T1, recombinant purified human Nectin-4-Fc …; assay: BLI (Octet), Nectin-4-Fc on anti-human Fc sensors, run 2
[2] = biological target: T2, mouse Nectin-4; assay: cell-based ELISA on transfected CHO-K1 cells
[3] = biological target: T3, cynomolgus monkey Nectin-4; assay: cell-based ELISA on CHO-K1 cells expressing cynomolgus monkey Nectin-4
[4] = biological target: T1, recombinant purified human Nectin-4-Fc …; assay: BLI (Octet), Nectin-4-Fc on anti-human Fc sensors, run 1
[5] = biological target: T2, mouse Nectin-4; assay: cell-based ELISA on CHO-K1 cells expressing mouse Nectin-4
[6] = biological target: T4, human Nectin-4 (on cells); assay: flow cytometry on BeWo cells (endogenous Nectin-4)
[7] = biological target: T4, human Nectin-4 (on cells); assay: flow cytometry on A431 cells (endogenous Nectin-4)
[8] = biological target: T4, human Nectin-4 (on cells); assay: flow cytometry on HT-29 cells (endogenous Nectin-4)
[9] = biological target: T1, recombinant purified human Nectin-4-Fc …; assay: BLI (Octet), Nectin-4-Fc on anti-human Fc sensors, run 1; remark: listed apart in the source
[10] = biological target: T1, recombinant purified human Nectin-4-Fc …; assay: BLI (Octet), Nectin-4-Fc on anti-human Fc sensors, run 2; remark: listed apart in the source

| Binder | Kd [1] [nM] | binding result [2] | binding result [3] | Kd [4] [nM] | binding result [5] | EC50 [6] [nM] | EC50 [7] [nM] | EC50 [8] [nM] | Kd [9] [nM] | koff [9] [s⁻¹] | kon [9] [M⁻¹ s⁻¹] | Kd [10] [nM] | koff [10] [s⁻¹] | kon [10] [M⁻¹ s⁻¹] |
| --- | --- | --- | --- | --- | --- | --- | --- | --- | --- | --- | --- | --- | --- | --- |
| LV1183 (VHH, Llama-derived anti-Nectin-4 VHH) VHH: EVQLVESGGGLVQAGGSLRLSCAASGSIFDINLMGWYRQAPGKLRELVASITRGGSTWYVDSVKGRFIISRDSAKNTVYLQMNSLKPGDTAVYYCAAESIGSYTFDRWGQGTQVTVSS | 7.98 | no binding (tested: 0.032 to 500 nM) | binds | 5.7 |  |  |  |  |  |  |  |  |  |  |
| LV1181 (VHH, Llama-derived anti-Nectin-4 VHH) VHH: EVQLVESGGGLVQAGGSLRLSCAASGSISSINLMGWHRQAPGKQRELVATITRGGSTNYADSVKGRFTISRDNGKNTVYLQMNSLKPEDTAAYYCVDVEPSGMGWRDYWGQGTQVTVSS | 0.76 |  | binds | 0.8 | binds | 0.4 | 0.33 | 1.5 |  |  |  |  |  |  |
| LV1185xVδ2 (bispecific antibody, Orientation N-term-anti-Nectin-4 VHH-linker-anti-Vδ2 VHH (5C8); no Fc; also called Nectin-4xVδ2 bispecific VHH) EVQLVESGGGLVQAGGSLRLSCAASRSTFSLNIMGWYRQAPGKQREYVATITTGGSTNYADSVRGRFTISRDNAEDTVYLQMNSLKPEDTAVYYCTAELVRRGPTTYWGRGTQVTVSSGGGGSEVQLVESGGGLVQAGGSLRLSCAASGRPFSNYAMGWFRQAPGKEREFVAAISWSGGSTSYADSVKGRFTISRDNAKNTVYLQMNSPKPEDTAIYYCAAQFSGADYGFGRLGIRGYEYDYWGQGTQVTVSS |  |  |  |  |  |  |  |  | 2 | 0.00127 | 642000 | 2.4 | 0.00144 | 593000 |
| LV1186xVδ2 (bispecific antibody, Orientation N-term-anti-Nectin-4 VHH-linker-anti-Vδ2 VHH (5C8); no Fc; also called Nectin-4xVδ2 bispecific VHH) EVQLVESGGGLVQAGGSLRLSCAASRSTFSLNIMGWYRQAPGKQREYVATITSGGSTNYADSVRGRFTISRDNAENTVYLQMDSLKPEDTAVYYCTAELVRRGPTTYWGRGTQVTVSSGGGGSEVQLVESGGGLVQAGGSLRLSCAASGRPFSNYAMGWFRQAPGKEREFVAAISWSGGSTSYADSVKGRFTISRDNAKNTVYLQMNSPKPEDTAIYYCAAQFSGADYGFGRLGIRGYEYDYWGQGTQVTVSS |  |  |  |  |  |  |  |  | 2.3 | 0.00165 | 731000 | 2.6 | 0.0017 | 660000 |
| LV1187 (VHH, Llama-derived anti-Nectin-4 VHH) VHH: EVQLVESGGGLVQAGGFLRLSCAASRSVFRINVMGWYRQAPGKQRELVAGITSGGSRRLADSVKGRFTISRDNAKNTVYLQMNSLKPEDTAVYYCFAEAVVGDEPYWGQGTQVTVSS | 6.09 |  | binds | 5.2 | binds |  |  |  |  |  |  |  |  |  |
| LV1184 (VHH, Llama-derived anti-Nectin-4 VHH) VHH: EVQLVESGGGLVQAGGSLRLSCAASGSISSINLMGWFRQAPAKQRELVTSISPGGSVRYADSVKGRFTISRDVAKNTVDLQMNSLKPEDTAVYYCAAESERTYYFDSWGQGTQVTVSS | 0.51 |  | binds | 0.51 | binds | 0.3 | 0.24 | 1.2 |  |  |  |  |  |  |
| LV1184xVδ2 (bispecific antibody, Orientation N-term-anti-Nectin-4 VHH-linker-anti-Vδ2 VHH (5C8); no Fc; also called Nectin-4xVδ2 bispecific VHH) EVQLVESGGGLVQAGGSLRLSCAASGSISSINLMGWFRQAPAKQRELVTSISPGGSVRYADSVKGRFTISRDVAKNTVDLQMNSLKPEDTAVYYCAAESERTYYFDSWGQGTQVTVSSGGGGSEVQLVESGGGLVQAGGSLRLSCAASGRPFSNYAMGWFRQAPGKEREFVAAISWSGGSTSYADSVKGRFTISRDNAKNTVYLQMNSPKPEDTAIYYCAAQFSGADYGFGRLGIRGYEYDYWGQGTQVTVSS |  |  |  |  |  |  |  |  | 0.07 | 6.33e-05 | 973000 | 0.18 | 0.000149 | 844000 |
| LV1178 (VHH, Llama-derived anti-Nectin-4 VHH from phage display) VHH: EVQLVESGGALVQAGGSLRLSCSVSGLTASRLTMGWFRQAPGKEREFVARVYASGGLTDYADSVKGRFTISRDNAKNTVYLQMNSLEPEDTAVYYCVAGLWADMRTMTSTRGYWGQGTQVTVSS | 8.02 | no binding (tested: 0.032 to 500 nM) | binds |  |  |  |  |  |  |  |  |  |  |  |
| LV1181xVδ2 (bispecific antibody, Orientation N-term-anti-Nectin-4 VHH-linker-anti-Vδ2 VHH (5C8); no Fc; also called Nectin-4xVδ2 bispecific VHH) EVQLVESGGGLVQAGGSLRLSCAASGSISSINLMGWHRQAPGKQRELVATITRGGSTNYADSVKGRFTISRDNGKNTVYLQMNSLKPEDTAAYYCVDVEPSGMGWRDYWGQGTQVTVSSGGGGSEVQLVESGGGLVQAGGSLRLSCAASGRPFSNYAMGWFRQAPGKEREFVAAISWSGGSTSYADSVKGRFTISRDNAKNTVYLQMNSPKPEDTAIYYCAAQFSGADYGFGRLGIRGYEYDYWGQGTQVTVSS |  |  |  |  |  |  |  |  | 0.26 | 0.000266 | 1.04e+06 | 0.37 | 0.0003 | 818000 |
| LV1185 (VHH, Llama-derived anti-Nectin-4 VHH) VHH: EVQLVESGGGLVQAGGSLRLSCAASRSTFSLNIMGWYRQAPGKQREYVATITTGGSTNYADSVRGRFTISRDNAEDTVYLQMNSLKPEDTAVYYCTAELVRRGPTTYWGRGTQVTVSS | 2.34 |  | binds | 3.61 | binds |  |  |  |  |  |  |  |  |  |
| LV1186 (VHH, Llama-derived anti-Nectin-4 VHH) VHH: EVQLVESGGGLVQAGGSLRLSCAASRSTFSLNIMGWYRQAPGKQREYVATITSGGSTNYADSVRGRFTISRDNAENTVYLQMDSLKPEDTAVYYCTAELVRRGPTTYWGRGTQVTVSS | 3.94 |  | binds | 3.93 | binds |  |  |  |  |  |  |  |  |  |
